Test results as given in US10800813 (Bicycle, dated 2020).
Numbered stars: 1 amine (or outer) side, 2 acyl side, 3 side chain; on linkers, the order of the positions; unused ones are H or OH. Bridge positions count the residues as written; N and C are the ends. Square brackets hold non-standard residues; d marks the D form. Ends that are not written are not given here. 1Nal = N[C@@H](Cc1cccc2ccccc12)C(=O)O; TBMB = c1c(C[*:1])cc(C[*:3])cc1C[*:2]; 3Pal = N[C@@H](Cc1cccnc1)C(=O)O; 4Pal = N[C@@H](Cc1ccncc1)C(=O)O; Cha = N[C@@H](CC1CCCCC1)C(=O)O

The binders below were run against T1, biotinylated human plasma Kallikrein (human, UniProt P03952 20-638, biotinylated) (assay: phage binding assay).
T1 construct: also called Biotinylated hPK
T1 sequence (P03952 20-638 limits assumed): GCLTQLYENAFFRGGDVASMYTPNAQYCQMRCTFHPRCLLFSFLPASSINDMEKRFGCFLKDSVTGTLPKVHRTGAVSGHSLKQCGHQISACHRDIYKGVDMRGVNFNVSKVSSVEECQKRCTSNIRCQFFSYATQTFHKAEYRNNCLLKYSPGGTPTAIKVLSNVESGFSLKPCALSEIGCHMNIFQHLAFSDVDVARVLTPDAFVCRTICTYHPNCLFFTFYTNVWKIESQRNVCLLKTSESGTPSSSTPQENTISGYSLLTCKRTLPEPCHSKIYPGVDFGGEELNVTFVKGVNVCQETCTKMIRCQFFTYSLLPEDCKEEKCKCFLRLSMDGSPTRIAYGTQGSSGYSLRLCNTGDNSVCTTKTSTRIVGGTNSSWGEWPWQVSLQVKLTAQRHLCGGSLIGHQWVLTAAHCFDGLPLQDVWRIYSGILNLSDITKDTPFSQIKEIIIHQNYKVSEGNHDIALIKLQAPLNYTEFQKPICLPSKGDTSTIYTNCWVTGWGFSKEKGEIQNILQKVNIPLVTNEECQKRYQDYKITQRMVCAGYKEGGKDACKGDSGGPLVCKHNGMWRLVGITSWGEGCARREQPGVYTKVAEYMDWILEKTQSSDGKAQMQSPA
Description: (§1) Library transformant colonies, or selection output colonies, were picked and grown as individual cultures in 2TY broth containing selective antibiotic. The picked colonies were DNA-sequenced using a QIAgen PyroMark Q96 DNA sequencer to reveal the amino-acid substitution present in each clone, and were assayed for human plasma Kallikrein binding as follows. The phage-containing supernatant was harvested from the culture and phage were cyclised with tris bromomethyl benzene(TBMB) based on the methods of Heinis et al (Nature Chemical Biology vol. 5 pp 502-507 (2009)). The purified phage from this process were assayed for binding to biotinylated human plasma Kallikrein using a homogeneous plate-based binding assay; assay read-out measured on a BMG Labtech Pherastar FS plate reader. The quantitative binding data from duplicate assay samples was averaged (mean) and expressed as signal:background. […] The assay data was correlated with the peptide sequences.
A library was constructed where positions 1, 6, 7, 8, 9 &10 of 06-34-03 were fixed and positions 2, 3, 4 & 5 were randomised (see 'Randomisation of peptide domains—Library construction' in Methods above). Selections against human plasma Kallikrein were performed at a variety of stringencies (see 'Phage selections' in Methods above). All output sequences were identified and analysed for target binding (see 'Randomisation of peptide domains—Assay of binding of individual clones' in Methods above). Table 17 lists each unique sequence, its relative abundance in the selection output (frequency), and a rank number according to target binding strength.

Row | Binder | Rank (by Kallikrein binding)
1 | CSLFDHCTHQDLC (linker 1-7-13 via TBMB) [SEQ ID NO 112] | 40
2 | CSWPARCTHQDLC (linker 1-7-13 via TBMB) [SEQ ID NO 73] | 1
3 | CSWSARCTHQDLC (linker 1-7-13 via TBMB) [SEQ ID NO 91] | 19
4 | CSFPWRCTHQDLC (linker 1-7-13 via TBMB) [SEQ ID NO 95] | 23
5 | CRFPFKCTHQDLC (linker 1-7-13 via TBMB) [SEQ ID NO 83] | 11
6 | CSWLARCTHQDLC (linker 1-7-13 via TBMB) [SEQ ID NO 76] | 4
7 | CSYPFRCTHQDLC (linker 1-7-13 via TBMB) [SEQ ID NO 93] | 21
8 | CSFPIRCTHQDLC (linker 1-7-13 via TBMB) [SEQ ID NO 87] | 15
9 | CSWPFRCTHQDLC (linker 1-7-13 via TBMB) [SEQ ID NO 86] | 14
10 | CSYPIRCTHQDLC (linker 1-7-13 via TBMB) [SEQ ID NO 90] | 18
11 | CSHPYRCTHQDLC (linker 1-7-13 via TBMB) [SEQ ID NO 80] | 8
12 | CSHPFRCTHQDLC (linker 1-7-13 via TBMB) [SEQ ID NO 81] | 9
13 | CSWPSRCTHQDLC (linker 1-7-13 via TBMB) [SEQ ID NO 74] | 2
14 | CSWWARCTHQDLC (linker 1-7-13 via TBMB) [SEQ ID NO 99] | 27
15 | CSWPYRCTHQDLC (linker 1-7-13 via TBMB) [SEQ ID NO 82] | 10
16 | CSYPYRCTHQDLC (linker 1-7-13 via TBMB) [SEQ ID NO 98] | 26
17 | CSFPFKCTHQDLC (linker 1-7-13 via TBMB) [SEQ ID NO 78] | 6
18 | CSFPYRCTHQDLC (linker 1-7-13 via TBMB) [SEQ ID NO 77] | 5
19 | CSWHARCTHQDLC (linker 1-7-13 via TBMB) [SEQ ID NO 96] | 24
20 | CSWQARCTHQDLC (linker 1-7-13 via TBMB) [SEQ ID NO 114] | 42
21 | CSWAARCTHQDLC (linker 1-7-13 via TBMB) [SEQ ID NO 79] | 7
22 | CSFPYKCTHQDLC (linker 1-7-13 via TBMB) [SEQ ID NO 94] | 22
23 | CSHRRWCTHQDLC (linker 1-7-13 via TBMB) [SEQ ID NO 113] | 41

These binders were tested against T2, human plasma Kallikrein (human, UniProt P03952 20-638, limits assumed) (assay: enzyme inhibition assay).
T2 construct: also called hPK; human PK
T2 sequence (P03952 20-638 limits assumed): as above

Row | Binder | Ki
24 | ACSWPYRCLHQDYCA (linker 2-8-14 via TBMB; not fully specified (N-terminus, C-terminus), also called PK109) [06-61] | 5.8 nM
25 | ACSWPARCNHQDLCA (linker 2-8-14 via TBMB; not fully specified (N-terminus, C-terminus), also called PK105) [06-57] | 0.4 nM
26 | ACGGYNNCRAFSYCA (linker 2-8-14 via TBMB, also called PK115) [1F7] | 2.2 nM
27 | ACADPWACLFRRPCA (linker 2-8-14 via TBMB; not fully specified (N-terminus, C-terminus), also called PK113) [06-63 T] | 1280 nM
28 | ACGVPYRCTHQEMCA (linker 2-8-14 via TBMB; not fully specified (N-terminus, C-terminus), also called PK111) [06-64 T] | 6.9 nM
29 | ACAWPAKCLTRELCA (linker 2-8-14 via TBMB, also called PK103) [1B1] | 8.1 nM
30 | ACRWPARCLTTSLCA (linker 2-8-14 via TBMB; not fully specified (N-terminus, C-terminus), also called PK102) [06-59] | 0.5 nM
31 | ACTWPARCTHQNWCA (linker 2-8-14 via TBMB; not fully specified (N-terminus, C-terminus), also called PK107) [06-09] | 1.2 nM
32 | ACTWPARCTMQNWCA (linker 2-8-14 via TBMB, also called PK108) [06-A2*] | 181 nM
33 | ACNWPYRCLHTDLCA (linker 2-8-14 via TBMB; not fully specified (N-terminus, C-terminus), also called PK110) [06-157] | 3.3 nM

Biological target: T2, human plasma Kallikrein
Experiment: enzyme inhibition assay
Remark: another data set of the same source

Row | Binder | Ki
34 | Ac-CSFP[4Pal]RCLHQDLC-NH2 (linker 1-7-13 via TBMB; SMILES CC(=O)N[C@H]1CSCc2cc3cc(c2)CSC[C@H](NC(=O)[C@H](CCCNC(=N)N)NC(=O)[C@H](Cc2ccncc2)NC(=O)[C@@H]2CCCN2C(=O)[C@H](Cc2ccccc2)NC(=O)[C@H](CO)NC1=O)C(=O)N[C@@H](CC(C)C)C(=O)N[C@@H](Cc1c[nH]cn1)C(=O)N[C@@H](CCC(N)=O)C(=O)N[C@@H](CC(=O)O)C(=O)N[C@@H](CC(C)C)C(=O)N[C@H](C(N)=O)CSC3) [Ac-(06-34-18) Phe2 4Pal4] | 2.2 nM
35 | Ac-CSFP[1Nal]RCLHQDLC-NH2 (linker 1-7-13 via TBMB; SMILES CC(=O)N[C@H]1CSCc2cc3cc(c2)CSC[C@H](NC(=O)[C@H](CCCNC(=N)N)NC(=O)[C@H](Cc2cccc4ccccc24)NC(=O)[C@@H]2CCCN2C(=O)[C@H](Cc2ccccc2)NC(=O)[C@H](CO)NC1=O)C(=O)N[C@@H](CC(C)C)C(=O)N[C@@H](Cc1c[nH]cn1)C(=O)N[C@@H](CCC(N)=O)C(=O)N[C@@H](CC(=O)O)C(=O)N[C@@H](CC(C)C)C(=O)N[C@H](C(N)=O)CSC3) [Ac-(06-34-18) Phe2 1Nal4] | 13.5 nM
36 | Ac-CSFP[Cha]RCLHQDLC-NH2 (linker 1-7-13 via TBMB; SMILES CC(=O)N[C@H]1CSCc2cc3cc(c2)CSC[C@H](NC(=O)[C@H](CCCNC(=N)N)NC(=O)[C@H](CC2CCCCC2)NC(=O)[C@@H]2CCCN2C(=O)[C@H](Cc2ccccc2)NC(=O)[C@H](CO)NC1=O)C(=O)N[C@@H](CC(C)C)C(=O)N[C@@H](Cc1c[nH]cn1)C(=O)N[C@@H](CCC(N)=O)C(=O)N[C@@H](CC(=O)O)C(=O)N[C@@H](CC(C)C)C(=O)N[C@H](C(N)=O)CSC3) [Ac-(06-34-18) Phe2 Cha4] | 0.91 nM
37 | Ac-CSFP[3Pal]RCLHQDLC-NH2 (linker 1-7-13 via TBMB) [Ac-(06-34-18) Phe2 3Pal4] | 2.57 nM
38 | Ac-CS[3Pal]PYRCLHQDLC-NH2 (linker 1-7-13 via TBMB) [Ac-(06-34-18) 3Pal2 Tyr4] | 0.91 nM
39 | Ac-CS[4Pal]PYRCLHQDLC-NH2 (linker 1-7-13 via TBMB) [Ac-(06-34-18) 4Pal2 Tyr4] | 3.56 nM
40 | Ac-CS[Cha]PYRCLHQDLC-NH2 (linker 1-7-13 via TBMB) [Ac-(06-34-18) Cha2 Tyr4] | 1.87 nM

Each binder was assayed against T1, biotinylated human plasma Kallikrein (assay: phage binding assay, signal:background).
Description: as §1
Selections against human plasma Kallikrein were performed with this library in order to study the non-WPAR (SEQ ID NO: 18) determinants of Kallikrein binding, and to isolate the optimal WPAR (SEQ ID NO: 18)-containing peptide sequence.

Row | Binder | Binding assay signal
41 | CSWPARCTHQDLC (linker 1-7-13 via TBMB) [SEQ ID NO 73] | 110
